Source: the RNAGym collection of RNA variant scans (doi:10.1021/acssynbio.7b00057)

B1: Pistol ribozyme (parent)
chain: GGGUCGUUGUUCCAUAAUCGCGUGGAUAUGGCACGCAAGUUUCUACCGGGCACCGUAAAUGUCCGACUGGAGCCGUUCGGGCGGCUAUAAACAGACCUCAGGCCCGAAGCGUGGCGGCACCUGCCGCCGGUGGUAAAAAAGAUCGGAAGAGCACACGUCU

Variants of: B1
Assay: aptazyme ON/OFF ratio, guanine; higher = stronger switching; co-transcriptional cleavage with and without guanine

Variant | aptazyme ON/OFF ratio
U8G U11A C13A | 1.24
U8G U11A C13U | 1.33
U8G U10C U11G C12A C13G | 1.13
U8G U10C U11G C12A C13A | 1.16
U8G U10C U11G C12A C13U | 1.2
U8G U10G U11C C13U | 1.04
U8G U10G U11C C13A | 1.04
U8G U10G U11C C13G | 1.02
U8G U10A U11A C12U C13A | 1.3
U8G U10A U11A C12U C13U | 1.14
U8G U10A U11A C12U C13G | 1.17
U8G U11A C12U C13U | 1.33
U8G U11A C12U C13G | 1.12
U8G U11A C12U C13A | 1.18
U8G U10A U11C C12A C13G | 1.12
U8G U10A U11C C12A C13U | 1.14
U8G U10A U11C C12A C13A | 1.13
U8G U11A | 3.01
U8G U11G | 1.25
U8G U11C | 2.46
U8G U10C C12U C13A | 1.05

Variant | aptazyme ON/OFF ratio
U8G U10C C12U C13U | 1.17
U8G U10C C12U C13G | 1.07
U8G U10G C12U C13A | 1.3
U8G U10G C12U C13G | 1.18
U8G U10G C12U C13U | 1.2
U8G U11G C12G | 1.18
U8G U11G C12U | 1.33
U8G U11G C12A | 1.44
U8G U10G U11C C12U C13A | 1.06
U8G U10G U11C C12U C13U | 1.04
U8G U10G U11C C12U C13G | 1.14
U8G U10C U11G | 1.75
U8G U10C U11C | 1.19
U8G U10C U11A | 1.89
U8G U10A C12G C13G | 1.14
U8G U10A C12G C13U | 1.28
U8G U10A C12G C13A | 1.16
U8G U11C C12G C13A | 1.25
U8G U11C C12G C13U | 1.2
U8G U11C C12G C13G | 1.3
U8G U11A C12U | 1.46

Variant | aptazyme ON/OFF ratio
U8G U11A C12G | 1.1
U8G U11A C12A | 1.45
G9A C12U C13G | 1.62
G9A C12U C13U | 1.32
G9A C12U C13A | 1.46
U8G G9U U10G U11G C12A | 1.06
U8G G9U U10G U11G C12G | 1.13
U8G G9U U10G U11G C12U | 1.2
U8G G9U U10G U11G | 1.07
U8G U10G U11C C12G | 1.11
U8G U10G U11C C12A | 1.06
U8G U10G U11C C12U | 1.02
U8G U11C C13A | 1.19
U8G U11C C13U | 1.37
U8G U11C C13G | 1.17
U8G G9U U11C C12A C13U | 1.11
U8G G9U U11C C12A C13A | 1.09
U8G G9U U11C C12A C13G | 1.08
U8G G9U U11A C12G C13G | 1.23
U8G G9U U11A C12G C13A | 1.13
U8G G9U U11A C12G C13U | 1.18

Variant | aptazyme ON/OFF ratio
U8G G9U U11A C13U | 1.25
U8G G9U U11A C13G | 1.06
U8G G9U U11A C13A | 1.33
G9A C12G C13G | 1.46
G9A C12G C13A | 1.3
G9A C12G C13U | 1.44
U8G G9U U11G C12G C13U | 1.22
U8G G9U U11G C12G C13G | 1.36
U8G G9U U11G C12G C13A | 1.21
U8G U10G U11A C12U C13G | 1.22
U8G U10G U11A C12U C13A | 1.14
U8G U10G U11A C12U C13U | 1.26
U8G U10G C12A C13U | 1.17
U8G U10G C12A C13A | 1.26
U8G U10G C12A C13G | 1.19
U8G U10C U11A C12U C13A | 1.14
U8G U10C U11A C12U C13U | 1.22
U8G U10C U11A C12U C13G | 1.14
U8G G9U U11A C12A C13A | 1.18
U8G G9U U11A C12A C13G | 1.22
U8G G9U U11A C12A C13U | 1.1
